Assay results from patent publication US20110293610A1 (published 2011).
Numbering of substitutions follows the chain as printed.

T1: Fas ligand (human, UniProt P48023 134-281, limits assumed)
T1 sequence (looked up): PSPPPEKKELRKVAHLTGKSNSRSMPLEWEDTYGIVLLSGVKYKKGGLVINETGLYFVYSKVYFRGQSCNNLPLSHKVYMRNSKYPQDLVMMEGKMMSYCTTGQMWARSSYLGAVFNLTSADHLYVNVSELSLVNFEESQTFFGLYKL

T2: TNF-beta (human, UniProt P01374 35-205)
T2 construct: also called TNFβ; Tumour Necrosis Factor-beta
T2 sequence (looked up): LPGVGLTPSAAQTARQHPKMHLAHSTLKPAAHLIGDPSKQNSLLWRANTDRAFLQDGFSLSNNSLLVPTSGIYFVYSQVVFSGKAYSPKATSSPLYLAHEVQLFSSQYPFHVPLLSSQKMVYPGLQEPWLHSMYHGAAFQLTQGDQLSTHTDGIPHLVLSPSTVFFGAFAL

B1: I008C02 (scFv)
scFv: AVQLQESGPGLVKPSETLSLTCSVSGASMTTNKFYWSWIRQPPGKGLEWIGNINYSKSTNYNPSLKSRITISVDTSKNQLSLKLNSVTAADTAVYYCARHVRDYDILTGYYRGHYFDYWGQGTMVTVSSGGGGSGGGGSGGGGSQSVLTQPASVSGSPGQSITISCTGTSSDVGGYNYVSWYQQHPGKAPKLMIYEGSKRPSGVSNRFSGSKSGNTASLTISGLQAEDEADYYCSSYTTRSTRVFGGGTKLTVLG
B2: I022E02 (scFv)
scFv: QVQLVQSGAEVKKPGASVMVSCKASGYTFSTYAVHWVRQAPGQGLEWMGRINAGNGYTKYSQKFQGRVTITKDTSASAAYMELSSLGSEDTALYYCARATYDPLTGYSFDGLDIWGKGTMVTVSSGGGGSGGGGSGGGGSQSVLTQPASVSGSPGQSITISCTGTSSDVGGYNYVSWYQQHPGKAPKLMIYEGSKRPSGVSNRFSGSKSGNTASLTISGLQAEDEADYYCSSYTTRSTRVFGGGTKLTVLG
B3: I018C02 (scFv)
scFv: QVQLQQSGSELKKPGASVIVSCKVSGYSLTKMSMHWVRQSPGEGLEWVGGIDPETRQPVYAQKFQGRVTITKDTSASAAYMELSSLGSEDTALYYCARATYDPLTGYSFDGFDIWGQGTLVTVSSGGGGSGGGGSGGGGSQSVLTQPASVSGSPGQSITISCTGTSSDVGGYNYVSWYQQHPGKAPKLMIYEGSKRPSGVSNRFSGSKSGNTASLTISGLQAEDEADYYCSSYTTRSTRVFGGGTKLTVLG
B4: I008B01 (scFv)
scFv: QVQLVQSGAEVMKPGASVKVSCKASGYNFNNYAMQWVRQAPGQRLEWMGWIVPGNGKTKYSQKFQDRVTIARDTSASTVYMELSSLTSEDTAMYYCARATYDPLTGYSFDGFDIWGQGTTVTVSSGGGGSGGGGSGGGGSQSVLTQPASVSGSPGQSITISCTGTSSDVGGYNYVSWYQQHPGKAPKLMIYEGSKRPSGVSNRFSGSKSGNTASLTISGLQAEDEADYYCSSYTTRSTRVFGGGTKLTVLG
B5: I016E05 (scFv)
scFv: QVQLQQSGAEVKKPGASVKVSCKASGYTFTKYTMHWVRQAPGQGPEWMGWINGGSGDTKYSRKFQGRVTITKDTSASAAYMELSSLGSEDTALYYCARATYDPLTGYSFDGFDIWGKGTMVTVSSGGGGSGGGGSGGGGSQSALTQPASVSGSPGQSITISCTGTSSDVGGYNYVSWYQQHPGKAPKLMIYEGSKRPSGVSNRFSGSKSGNTASLTISGLQAEDEADYYCSSYTTRSTRVFGGGTKLTVLG
B6: I018H08 (scFv)
scFv: B5 scFv with K19N, K117Q, A143V, V249I
notes: also called 1018H08
B7: I018H09 (scFv)
scFv: B5 scFv with A79T, A143V
B8: I029D07 (scFv)
scFv: QVQLQQSGAEVKKPGSSVKVSCKASGYTFTKYTMHWVRQAPGQGPEWMGWINGGSGDTKYSRKFQGRVTITKDTSASAAYMELSSLGSEDTALYYCARATYDPLTGYSFDGFDIWGQGTLVTVSSGGGGSGGGGSGGGGSQSVLTQPASVSGSPGQSITISCTGTSSDVGGYNYVSWYQQHPGKAPKLMIYDVSKRPSGVPDRFSGSKSGNTASLTISGLQAEDEGDYYCSSYAGPSRVFGGGTKVEIKR
B9: I061E07 (scFv)
scFv: QVQLQQSGAEVKKTGASVKVSCKASGYIFADYYVHWVRQAAGQGLEWMGWINPNTGSTKYAQKFQDRVTMTRDTSIKTVYMELRRLRSDDTALYYCARATYDPLTGYSFDGFDIWGKGTMVTVSSGGGGSGGGGSGGGGSQSVLTQPPSASGTPGQRVTISCSGSSSNIGSNTVNWYQRLPGAAPQLLIYNNDQRPSGIPDRFSGSKSGTSGSLVISGLQSEDEADYYCASWDDSLNGRVFGGGTKLTVLG
B10: I006D07 (scFv)
scFv: EVQLVESGGGVVQPGGSLRLSCAASGFTVNSYAMHWVRQAPGKGLQWVAVIPYDGSKKYYADSVKGRFTVSRDNSKNTLYLQMNSLRAEDTAVYYCARSHYDILTGLNYWYFDLWGRGTLVTVSSGGGGSGGGGSGGGGSSELTQDPAVSVALGQTVRITCQGDSLRSYYASWYQQKPGQAPVLVIYGKNNRPSGIPDRFSGSSSGNTASLTITGAQAEDEADYYCNSRGSSGNHVVFGGGTKLTVLG
B11: I017D10 (scFv)
scFv: RVQLVQSGAEVKKPGASVKVSCKASGYTFTSDHISWVRQAPGQGLEWMGWISPHHGKTNYAQKLQGRVTMTTDTSTSTAYMELRSLRSDDTAVYYCARVQMDSEYYDLLTGINVGPYYFDYWGKGTLVTVSSGGGGSGGGGSGGGGSSELTQDPAVSVALGQTVRITCQGDSLRSYYASWYQQKPGQAPVLVIYGKNNRPSGIPDRFSGSSSGNTASLTITGAQAEDEADYYCNSRDSSGNHVVFGGGTKLTVLG
B12: I001C09 (scFv)
scFv: GVQLVQSGPEVKKPGASVKVSCTASGYTFTSYGVSWVRQAPGQGLEWIGWISAHNGQTKYAEKFQGRVTMTRNTSISTAYMELSSLRSEDTAVYYCARDGSYDILTGYYIDNYMDVWGKGTMVTVSSGGGGSGGGGSGGGGSSELTQDPAVSVALGQTVRITCQGDSLRSYYTNWFQQKPGQAPLLVVYAKNKRPSGIPDRFSGSSSGNTASLTITGAQAEDEADYYCHSRDSSGNHVLFGGGTKLTVLG
B13: I018D07 (scFv)
scFv: B12 scFv with K19I
B14: I003F12S (scFv)
scFv: QVQLLQSAAELKKPGQSLKISCKGSGFTFTTYWIGWVRQLPGKGLEWMGIIYPGDSHTTYSPSFEGHVNISVDKSINTAYLQWSSLKASDTAMYYCARHDDDVLTGYYFESWGQGTMVTVSSGGGGSGGGGSGGGGSQSVLTQPASVSGSPGQSITISCTGTSSDVGGYNYVSWYQQHPGKAPKLMIYEGSKRPSGVSNRFSGSKSGNTASLTISGLQAEDEADYYCSSYTTRSTRVFGGGTKLTVLG

The binders below were run against T3, B Lymphocyte Stimulator, soluble form (human) (human, UniProt Q9Y275 134-285, biotinylated with NHS-biotin where used as biotinylated B Lymphocyte Stimulator) (assay: phage competition ELISA).
T3 construct: Coated on plastic, captured on streptavidin plates, amine-coupled to a CM5 chip or free in solution, depending on the assay; also called BLyS; immobilized B Lymphocyte Stimulator
B1: binds.
B2: binds.
B3: binds.
B4: binds.
B5: binds.
B6: binds.
B7: binds.
B8: binds.
B9: binds.
B10: binds.
B11: binds.
B12: binds.
B13: binds.

The binders below were run against T4, TRAIL (human, UniProt P50591 114-281) (assay: phage ELISA).
T4 construct: also called TNF-related apoptosis inducing ligand
T4 sequence (P50591 114-281 limits assumed): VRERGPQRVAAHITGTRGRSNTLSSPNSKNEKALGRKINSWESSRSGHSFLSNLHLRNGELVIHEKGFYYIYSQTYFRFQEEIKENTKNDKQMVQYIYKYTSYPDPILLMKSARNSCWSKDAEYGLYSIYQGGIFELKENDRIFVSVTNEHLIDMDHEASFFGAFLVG
B1: no binding.
B2: no binding.
B3: no binding.
B4: no binding.
B5: no binding.
B6: no binding.
B7: no binding.
B8: no binding.
B9: no binding.
B10: no binding.
B11: no binding.
B12: no binding.
B13: no binding.
B14: no binding.

These binders were tested against T5, membrane-bound B Lymphocyte Stimulator on U937 plasma membrane preparations (human, UniProt Q9Y275 1-285) (assay: phage ELISA).
T5 construct: Natural protein in plasma membrane fractions of the human cell line U937 coated on ELISA plates; also called U937 plasma membranes; U937 membranes
B1: binds.
B2: binds.
B3: binds.
B4: binds.
B5: binds.
B6: binds.
B7: binds.
B8: binds.
B9: binds.
B10: binds.
B11: binds.
B12: binds.
B13: binds.

The binders below were run against T1, Fas ligand (assay: phage ELISA).
B1: no binding.
B2: no binding.
B3: no binding.
B4: no binding.
B5: no binding.
B6: no binding.
B7: no binding.
B8: no binding.
B9: no binding.
B10: no binding.
B11: no binding.
B12: no binding.
B13: no binding.
B14: no binding.

The binders below were run against T2, TNF-beta (assay: phage ELISA).
B1: no binding.
B2: no binding.
B3: no binding.
B4: no binding.
B5: no binding.
B6: no binding.
B7: no binding.
B8: no binding.
B9: no binding.
B10: no binding.
B11: no binding.
B12: no binding.
B13: no binding.
B14: no binding.

What follows are binders tested against T6, TNF-alpha (human, UniProt P01375 77-233) (assay: phage ELISA).
T6 construct: also called TNFα; TNF-α
T6 sequence (P01375 77-233 limits assumed): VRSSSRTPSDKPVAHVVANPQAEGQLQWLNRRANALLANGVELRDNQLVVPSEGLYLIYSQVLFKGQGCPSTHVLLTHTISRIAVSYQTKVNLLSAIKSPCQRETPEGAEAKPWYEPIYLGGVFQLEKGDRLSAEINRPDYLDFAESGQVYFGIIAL
B1: no binding.
B2: no binding.
B3: no binding.
B4: no binding.
B5: no binding.
B6: no binding.
B7: no binding.
B8: no binding.
B9: no binding.
B10: no binding.
B11: no binding.
B14: no binding.
